T1: Synechocystis OCP lacking the N-terminal extension, construct OCP_(13-317), holoprotein (Synechocystis sp. PCC 6803, UniProt P74102 13-317)
T1 sequence: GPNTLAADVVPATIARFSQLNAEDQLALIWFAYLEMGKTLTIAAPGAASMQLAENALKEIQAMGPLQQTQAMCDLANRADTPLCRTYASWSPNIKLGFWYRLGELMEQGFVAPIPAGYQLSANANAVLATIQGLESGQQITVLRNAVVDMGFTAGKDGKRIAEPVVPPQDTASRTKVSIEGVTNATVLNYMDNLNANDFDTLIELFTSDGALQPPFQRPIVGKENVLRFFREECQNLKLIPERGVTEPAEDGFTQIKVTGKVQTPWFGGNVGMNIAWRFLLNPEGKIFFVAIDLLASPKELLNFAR


How the values were obtained:
[1] = molecular target: Truncated Synechocystis FRP spanning amino acids 8-109 (Synechocystis sp. PCC 6803); assay: SEC-MALS + other: SAXS
[2] = molecular target: T1, Synechocystis OCP lacking the …; assay: SEC-MALS
SAXS = molecular target: the molecule itself; assay: SAXS

Truncated Synechocystis FRP spanning amino acids 8-109 (domain or fragment), sequence (P74103 whole entry, the tested form may be a part): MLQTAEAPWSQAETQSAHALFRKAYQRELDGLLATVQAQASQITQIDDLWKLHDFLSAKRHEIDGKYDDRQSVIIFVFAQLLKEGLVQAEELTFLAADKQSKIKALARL

Molecule	stoichiometry N [1]	stoichiometry N [2] [FRP per OCP]	stoichiometry N (SAXS)
Truncated Synechocystis FRP spanning amino acids 8-109 (domain or fragment)	2	–	–
Arthrospira maxima FRP (natural protein) MSEINWSEQDKNAAVDALHKAYEREVKILIDEVKQKAFNLTEIDEVWKLHDFLSARRHDIDGKYDYRDAASVFVLATLVKQGWLSLEELQVLGQDKLAKISALTRL	–	1	2
Synechocystis FRP (fluorescence recovery protein), wild-type construct with uncleavable N-terminal His6 tag and linker (natural protein) LQTAEAPWSQAETQSAHALFRKAYQRELDGLLATVQAQASQITQIDDLWKLHDFLSAKRHEIDGKYDDRQSVIIFVFAQLLKEGLVQAEELTFLAADKQSKIKALARL	–	2	–
